Patent US20090192084A1
Each block holds one substance with its values, some of them ahead of it.

Tests used:
PLAP (human) = PLAP (human) (UniProt Q9Y263); assay: Flag co-IP, 293 cells, MudPIT MS
Cullin 1 (human) [1] = target: Cullin 1 (human) (UniProt Q13616); assay: Flag co-IP, MudPIT MS, MG132
[2] = target: CUL4- and DDB I-associated WDR protein 2, WDR26 (human) (UniProt Q9H7D7); assay: Flag co-IP, MudPIT MS, MG132
Cullin 3 (human) [3] = target: Cullin 3 (human) (UniProt Q13618); assay: Flag co-IP, MudPIT MS, MG132
UBR2 (human) [4] = target: UBR2 (human) (UniProt Q8IWV8); assay: Flag co-IP, MudPIT MS, MG132
Cullin 2 (human) = Cullin 2 (human) (UniProt Q13617); assay: Flag co-IP, MudPIT MS, MG132
[5] = target: F-box//WD-repeat protein 1B, FBW1B (human) (UniProt Q9UKB1); assay: Flag co-IP, MudPIT MS, MG132
[6] = target: Kelch-like protein 22. KLEIL22 (human) (UniProt Q53GT1); assay: Flag co-IP, MudPIT MS, MG132
[7] = target: Retinoblastoma-associated factor 600, UBR4 (human) (UniProt Q5T4S7); assay: Flag co-IP, MudPIT MS, MG132
gp78 (human) [8] = target: gp78 (human) (UniProt Q9UKV5); assay: Flag co-IP, MudPIT MS, MG132
SKP1 (human) [9] = target: SKP1 (human) (UniProt P63208); assay: Flag co-IP, MudPIT MS, MG132
VCIP135 (human) = target: T1, VCIP135 (human) (UniProt Q96JH7); assay: Flag co-IP, 293 cells, MudPIT MS
T1 sequence (looked up): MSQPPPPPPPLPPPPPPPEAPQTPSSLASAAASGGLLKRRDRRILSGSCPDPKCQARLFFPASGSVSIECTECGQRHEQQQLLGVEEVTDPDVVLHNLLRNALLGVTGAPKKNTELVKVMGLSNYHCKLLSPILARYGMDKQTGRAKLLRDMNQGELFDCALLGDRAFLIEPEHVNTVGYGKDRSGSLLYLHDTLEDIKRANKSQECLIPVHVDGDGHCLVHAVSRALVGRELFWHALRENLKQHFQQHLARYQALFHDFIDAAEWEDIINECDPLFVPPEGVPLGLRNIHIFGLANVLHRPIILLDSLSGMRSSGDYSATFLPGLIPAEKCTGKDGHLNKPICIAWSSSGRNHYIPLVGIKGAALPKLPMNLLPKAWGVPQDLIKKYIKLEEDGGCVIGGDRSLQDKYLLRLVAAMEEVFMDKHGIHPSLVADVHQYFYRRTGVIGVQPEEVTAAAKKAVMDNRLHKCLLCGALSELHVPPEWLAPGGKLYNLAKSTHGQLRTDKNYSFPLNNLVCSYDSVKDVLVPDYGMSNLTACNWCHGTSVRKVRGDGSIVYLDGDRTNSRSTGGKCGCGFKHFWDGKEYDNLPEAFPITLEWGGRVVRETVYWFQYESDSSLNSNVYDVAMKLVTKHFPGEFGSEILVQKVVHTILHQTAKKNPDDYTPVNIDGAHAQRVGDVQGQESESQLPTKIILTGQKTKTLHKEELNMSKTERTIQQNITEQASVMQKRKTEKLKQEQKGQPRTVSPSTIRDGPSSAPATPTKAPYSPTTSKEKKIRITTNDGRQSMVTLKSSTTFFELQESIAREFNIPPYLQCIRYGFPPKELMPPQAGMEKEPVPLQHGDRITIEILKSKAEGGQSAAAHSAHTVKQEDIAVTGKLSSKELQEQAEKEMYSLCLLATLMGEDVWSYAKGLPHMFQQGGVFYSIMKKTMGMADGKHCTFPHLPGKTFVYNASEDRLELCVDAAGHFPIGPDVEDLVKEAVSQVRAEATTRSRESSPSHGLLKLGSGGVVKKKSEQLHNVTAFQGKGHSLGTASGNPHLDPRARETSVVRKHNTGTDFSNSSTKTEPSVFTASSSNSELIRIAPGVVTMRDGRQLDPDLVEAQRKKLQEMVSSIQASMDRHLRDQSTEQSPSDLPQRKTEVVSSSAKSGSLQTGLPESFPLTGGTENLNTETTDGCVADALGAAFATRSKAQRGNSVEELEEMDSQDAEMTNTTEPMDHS

Cullin 1 (human) [10] = target: Cullin 1 (human) (UniProt Q13616); assay: Flag co-IP, MudPIT MS, DMSO
Cullin 3 (human) [11] = target: Cullin 3 (human) (UniProt Q13618); assay: Flag co-IP, MudPIT MS, DMSO
UBR2 (human) [12] = target: UBR2 (human) (UniProt Q8IWV8); assay: Flag co-IP, MudPIT MS, DMSO
[13] = target: Kelch-like protein 22. KLEIL22 (human) (UniProt Q53GT1); assay: Flag co-IP, MudPIT MS, DMSO
[14] = target: Retinoblastoma-associated factor 600, UBR4 (human) (UniProt Q5T4S7); assay: Flag co-IP, MudPIT MS, DMSO
gp78 (human) [15] = target: gp78 (human) (UniProt Q9UKV5); assay: Flag co-IP, MudPIT MS, DMSO
UBR1 (human) = UBR1 (human) (UniProt Q8IWV7); assay: Flag co-IP, MudPIT MS, DMSO
SKP1 (human) [16] = target: SKP1 (human) (UniProt P63208); assay: Flag co-IP, MudPIT MS, DMSO
[17] = target: Kelch repeat and BTB domain-containing protein 7, KBTB7 (human) (UniProt Q8WVZ9); assay: Flag co-IP, MudPIT MS, DMSO
Praja 2 (human) = Praja 2 (human) (UniProt O43164); assay: Flag co-IP, MudPIT MS, DMSO
endogenous NPL4 (human) = endogenous NPL4 (human) (UniProt Q8TAT6); assay: Flag co-IP, 293 cells, MudPIT MS
endogenous UFD1 (human) = target: T2, endogenous UFD1 (human) (UniProt Q92890); assay: Flag co-IP, 293 cells, MudPIT MS
T2 sequence (looked up): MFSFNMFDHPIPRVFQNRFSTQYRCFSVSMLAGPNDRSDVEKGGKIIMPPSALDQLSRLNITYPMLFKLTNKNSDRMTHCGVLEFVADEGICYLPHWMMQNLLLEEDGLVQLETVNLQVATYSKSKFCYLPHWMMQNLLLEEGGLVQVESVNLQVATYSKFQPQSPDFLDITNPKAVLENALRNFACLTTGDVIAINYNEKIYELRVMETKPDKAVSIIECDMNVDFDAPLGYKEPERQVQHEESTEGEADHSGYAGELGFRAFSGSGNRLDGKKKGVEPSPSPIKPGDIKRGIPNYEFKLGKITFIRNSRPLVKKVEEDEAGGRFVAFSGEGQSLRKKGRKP

endogenous p97 (human) = endogenous p97 (human) (UniProt P55072); assay: Flag co-IP, 293 cells, MudPIT MS
[18] = target: Ubiquitin conjugation factor E4 B, UBE4B (Ufd2ortholog) (human) (UniProt O95155); assay: Flag co-IP, MudPIT MS, MG132
[19] = target: DNA damage-binding protein I. DDB1 (human) (UniProt Q16531); assay: Flag co-IP, MudPIT MS, MG132
EDD1/UBR5 (human) = EDD1/UBR5 (human) (UniProt O95071); assay: Flag co-IP, MudPIT MS, DMSO
[20] = target: Galectin-3 binding protein. LG3BP (human) (UniProt Q08380); assay: Flag co-IP, MudPIT MS, DMSO
[21] = target: Ubiquitin conjugation factor E4 B, UBE4B (Ufd2ortholog) (human) (UniProt O95155); assay: Flag co-IP, MudPIT MS, DMSO
[22] = target: DNA damage-binding protein I. DDB1 (human) (UniProt Q16531); assay: Flag co-IP, MudPIT MS, DMSO
p97-Myc = p97-Myc co-IP, 293 cells, MudPIT MS
Chain of p97-Myc (Q01853 2-806): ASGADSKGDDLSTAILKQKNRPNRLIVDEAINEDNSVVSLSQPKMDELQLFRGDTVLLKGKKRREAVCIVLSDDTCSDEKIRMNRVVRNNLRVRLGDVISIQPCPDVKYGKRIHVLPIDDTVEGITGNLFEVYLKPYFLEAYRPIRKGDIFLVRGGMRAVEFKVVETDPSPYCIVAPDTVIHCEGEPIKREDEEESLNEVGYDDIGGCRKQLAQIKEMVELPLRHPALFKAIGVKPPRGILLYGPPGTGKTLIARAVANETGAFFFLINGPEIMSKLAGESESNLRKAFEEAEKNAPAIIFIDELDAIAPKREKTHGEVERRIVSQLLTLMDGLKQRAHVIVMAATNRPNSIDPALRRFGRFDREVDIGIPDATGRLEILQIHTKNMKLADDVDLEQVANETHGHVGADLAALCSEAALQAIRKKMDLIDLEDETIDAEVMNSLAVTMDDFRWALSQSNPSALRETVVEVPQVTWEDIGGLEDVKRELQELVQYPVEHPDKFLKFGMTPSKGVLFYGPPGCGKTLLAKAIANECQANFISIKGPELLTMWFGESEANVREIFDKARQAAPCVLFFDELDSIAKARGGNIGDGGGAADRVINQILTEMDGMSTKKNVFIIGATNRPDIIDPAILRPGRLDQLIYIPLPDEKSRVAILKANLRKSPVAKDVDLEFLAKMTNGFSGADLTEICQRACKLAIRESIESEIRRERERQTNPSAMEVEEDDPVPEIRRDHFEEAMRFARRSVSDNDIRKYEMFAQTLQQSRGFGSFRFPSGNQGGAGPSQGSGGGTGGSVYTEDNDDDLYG

Chain of EDD1/UBR5 (human) (O95071 2-2799 limits assumed): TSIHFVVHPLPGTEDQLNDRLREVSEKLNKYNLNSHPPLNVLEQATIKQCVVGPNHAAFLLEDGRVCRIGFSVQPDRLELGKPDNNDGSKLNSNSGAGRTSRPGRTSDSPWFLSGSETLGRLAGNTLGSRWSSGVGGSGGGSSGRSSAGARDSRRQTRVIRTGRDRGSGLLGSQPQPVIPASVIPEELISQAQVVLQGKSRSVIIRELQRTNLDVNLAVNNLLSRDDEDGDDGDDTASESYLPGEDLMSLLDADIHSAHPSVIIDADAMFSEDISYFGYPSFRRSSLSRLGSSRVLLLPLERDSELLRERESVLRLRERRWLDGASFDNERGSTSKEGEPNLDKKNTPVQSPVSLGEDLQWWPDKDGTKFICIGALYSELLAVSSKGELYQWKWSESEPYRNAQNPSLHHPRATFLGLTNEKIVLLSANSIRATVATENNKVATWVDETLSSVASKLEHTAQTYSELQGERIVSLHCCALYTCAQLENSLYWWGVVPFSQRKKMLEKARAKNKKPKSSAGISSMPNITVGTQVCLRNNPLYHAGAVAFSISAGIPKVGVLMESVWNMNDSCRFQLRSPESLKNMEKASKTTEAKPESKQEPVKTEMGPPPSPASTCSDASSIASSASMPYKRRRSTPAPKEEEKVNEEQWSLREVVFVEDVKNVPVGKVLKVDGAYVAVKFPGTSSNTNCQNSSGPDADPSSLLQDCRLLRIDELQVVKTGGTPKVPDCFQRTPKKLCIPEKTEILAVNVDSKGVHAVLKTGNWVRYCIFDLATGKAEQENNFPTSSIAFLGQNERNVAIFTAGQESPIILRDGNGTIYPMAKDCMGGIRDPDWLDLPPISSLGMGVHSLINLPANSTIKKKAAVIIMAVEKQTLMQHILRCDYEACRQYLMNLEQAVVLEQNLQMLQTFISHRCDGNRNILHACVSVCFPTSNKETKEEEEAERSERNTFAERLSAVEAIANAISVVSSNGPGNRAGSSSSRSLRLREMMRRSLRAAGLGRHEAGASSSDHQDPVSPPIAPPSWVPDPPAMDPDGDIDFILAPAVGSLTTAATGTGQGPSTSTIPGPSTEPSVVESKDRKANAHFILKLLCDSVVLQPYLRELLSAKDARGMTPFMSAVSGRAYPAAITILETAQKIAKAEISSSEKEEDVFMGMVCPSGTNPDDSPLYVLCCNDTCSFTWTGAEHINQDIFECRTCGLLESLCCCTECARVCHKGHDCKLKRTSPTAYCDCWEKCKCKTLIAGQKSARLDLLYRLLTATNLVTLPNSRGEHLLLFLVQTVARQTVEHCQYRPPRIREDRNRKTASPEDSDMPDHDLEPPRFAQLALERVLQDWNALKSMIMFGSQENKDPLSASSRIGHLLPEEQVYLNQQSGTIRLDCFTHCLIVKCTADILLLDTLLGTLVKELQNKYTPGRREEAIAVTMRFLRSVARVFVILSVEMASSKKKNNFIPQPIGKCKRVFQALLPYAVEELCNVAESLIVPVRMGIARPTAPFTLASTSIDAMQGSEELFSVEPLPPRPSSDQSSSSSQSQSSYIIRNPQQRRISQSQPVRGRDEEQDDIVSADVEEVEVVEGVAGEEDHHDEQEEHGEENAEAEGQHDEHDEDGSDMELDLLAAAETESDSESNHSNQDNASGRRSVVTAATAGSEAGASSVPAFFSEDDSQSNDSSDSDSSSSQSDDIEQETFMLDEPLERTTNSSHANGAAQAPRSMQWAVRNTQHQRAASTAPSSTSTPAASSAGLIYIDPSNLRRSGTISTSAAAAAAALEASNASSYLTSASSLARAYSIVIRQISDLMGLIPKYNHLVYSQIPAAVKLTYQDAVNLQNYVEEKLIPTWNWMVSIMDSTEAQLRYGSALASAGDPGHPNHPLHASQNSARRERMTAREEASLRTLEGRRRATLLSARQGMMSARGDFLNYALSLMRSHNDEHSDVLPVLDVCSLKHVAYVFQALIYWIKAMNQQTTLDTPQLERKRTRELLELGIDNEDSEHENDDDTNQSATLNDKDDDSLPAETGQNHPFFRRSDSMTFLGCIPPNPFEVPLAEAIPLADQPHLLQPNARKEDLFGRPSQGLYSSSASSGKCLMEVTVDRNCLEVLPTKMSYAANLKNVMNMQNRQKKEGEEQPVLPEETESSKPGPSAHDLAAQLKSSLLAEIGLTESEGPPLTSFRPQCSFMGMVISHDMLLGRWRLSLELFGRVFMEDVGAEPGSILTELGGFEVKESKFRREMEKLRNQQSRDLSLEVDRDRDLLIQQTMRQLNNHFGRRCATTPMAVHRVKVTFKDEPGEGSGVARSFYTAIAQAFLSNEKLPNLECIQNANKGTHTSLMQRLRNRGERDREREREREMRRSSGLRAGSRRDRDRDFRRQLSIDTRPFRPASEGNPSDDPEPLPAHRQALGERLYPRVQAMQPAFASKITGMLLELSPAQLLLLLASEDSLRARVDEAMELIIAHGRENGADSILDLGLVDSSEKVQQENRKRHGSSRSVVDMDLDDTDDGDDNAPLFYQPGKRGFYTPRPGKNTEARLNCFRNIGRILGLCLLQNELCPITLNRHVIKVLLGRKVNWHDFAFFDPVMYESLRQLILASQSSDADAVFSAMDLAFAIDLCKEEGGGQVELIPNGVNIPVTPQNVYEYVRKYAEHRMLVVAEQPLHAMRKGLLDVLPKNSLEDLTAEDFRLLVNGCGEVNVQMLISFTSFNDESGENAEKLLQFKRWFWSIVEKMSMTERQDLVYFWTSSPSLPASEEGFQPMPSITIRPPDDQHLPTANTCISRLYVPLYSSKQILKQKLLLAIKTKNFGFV
Chain of endogenous p97 (human) (P55072 2-806 limits assumed): as the sequence (Q01853 2-806) above
Chain of Cullin 3 (human) (Q13618 2-768 limits assumed): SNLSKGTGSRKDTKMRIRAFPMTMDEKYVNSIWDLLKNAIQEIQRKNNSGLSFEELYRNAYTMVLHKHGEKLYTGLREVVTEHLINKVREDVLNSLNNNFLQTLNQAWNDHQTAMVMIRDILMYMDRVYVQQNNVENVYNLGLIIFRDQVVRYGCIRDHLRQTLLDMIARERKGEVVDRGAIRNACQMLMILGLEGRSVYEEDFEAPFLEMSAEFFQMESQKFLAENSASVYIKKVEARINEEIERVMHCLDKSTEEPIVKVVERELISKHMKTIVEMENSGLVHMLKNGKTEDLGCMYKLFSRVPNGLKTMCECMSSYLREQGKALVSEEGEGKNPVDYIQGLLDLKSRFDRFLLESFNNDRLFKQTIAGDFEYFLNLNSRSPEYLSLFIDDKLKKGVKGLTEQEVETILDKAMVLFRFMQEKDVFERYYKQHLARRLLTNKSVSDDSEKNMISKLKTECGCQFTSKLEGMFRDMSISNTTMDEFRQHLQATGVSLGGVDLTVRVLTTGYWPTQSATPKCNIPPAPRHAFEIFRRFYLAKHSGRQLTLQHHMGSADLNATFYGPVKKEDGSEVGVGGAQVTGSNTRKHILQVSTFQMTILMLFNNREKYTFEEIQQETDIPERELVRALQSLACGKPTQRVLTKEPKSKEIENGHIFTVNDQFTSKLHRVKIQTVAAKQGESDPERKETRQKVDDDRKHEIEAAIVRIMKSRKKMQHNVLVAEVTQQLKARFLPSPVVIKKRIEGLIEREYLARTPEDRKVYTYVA
Chain of Praja 2 (human) (O43164 2-708 limits assumed): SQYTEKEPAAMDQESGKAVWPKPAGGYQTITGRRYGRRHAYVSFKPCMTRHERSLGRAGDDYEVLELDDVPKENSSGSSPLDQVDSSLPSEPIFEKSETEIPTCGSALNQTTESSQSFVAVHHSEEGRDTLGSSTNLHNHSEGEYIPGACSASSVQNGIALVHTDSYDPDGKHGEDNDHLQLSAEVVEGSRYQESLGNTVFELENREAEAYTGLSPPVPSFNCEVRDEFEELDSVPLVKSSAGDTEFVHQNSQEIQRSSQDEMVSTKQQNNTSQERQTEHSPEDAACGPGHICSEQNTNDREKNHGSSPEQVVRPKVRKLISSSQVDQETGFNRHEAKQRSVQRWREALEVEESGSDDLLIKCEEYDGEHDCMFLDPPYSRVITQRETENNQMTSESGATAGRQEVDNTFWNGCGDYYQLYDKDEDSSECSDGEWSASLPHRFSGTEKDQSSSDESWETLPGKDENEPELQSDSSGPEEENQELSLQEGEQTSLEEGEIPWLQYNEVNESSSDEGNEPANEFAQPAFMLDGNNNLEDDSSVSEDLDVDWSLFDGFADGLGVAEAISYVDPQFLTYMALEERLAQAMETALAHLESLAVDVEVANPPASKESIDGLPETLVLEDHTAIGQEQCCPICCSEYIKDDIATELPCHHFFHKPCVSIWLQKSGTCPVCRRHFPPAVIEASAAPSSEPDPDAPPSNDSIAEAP

Substance: Flag-ASPL (from UniProt Q9BZE9 1-553)
- sequence count (PLAP (human)): 10
- sequence coverage (PLAP (human)): 22.8%
- spectrum count (PLAP (human)): 10

Substance: Flag-UBXD3 (from UniProt Q96LJ8 1-280)
- sequence count (endogenous NPL4 (human)): 7
- sequence coverage (endogenous NPL4 (human)): 14.1%
- spectrum count (endogenous NPL4 (human)): 9
- sequence count (endogenous UFD1 (human)): 3
- sequence coverage (endogenous UFD1 (human)): 12.2%
- spectrum count (endogenous UFD1 (human)): 3

Substance: Flag-p47 (from UniProt O35987 1-370)
- abundance factor (AF) [18]: 1.4
- sequence count [18]: 5
- spectrum count [18]: 5
- abundance factor (AF) (Cullin 2 (human)): 1
- sequence count (Cullin 2 (human)): 2
- spectrum count (Cullin 2 (human)): 2
- abundance factor (AF) [19]: 1
- sequence count [19]: 3
- spectrum count [19]: 3
- abundance factor (AF) [7]: 0.2
- sequence count [7]: 2
- spectrum count [7]: 3
- abundance factor (AF) (gp78 (human) [8]): 1.7
- sequence count (gp78 (human) [8]): 3
- spectrum count (gp78 (human) [8]): 3
- sequence count (PLAP (human)): 27
- sequence coverage (PLAP (human)): 42.9%
- spectrum count (PLAP (human)): 38
- abundance factor (AF) (EDD1/UBR5 (human)): 0.2
- sequence count (EDD1/UBR5 (human)): 2
- spectrum count (EDD1/UBR5 (human)): 2
- abundance factor (AF) [20]: 1.5
- sequence count [20]: 3
- spectrum count [20]: 3
- abundance factor (AF) [21]: 1.1
- sequence count [21]: 5
- spectrum count [21]: 5
- abundance factor (AF) [22]: 0.5
- sequence count [22]: 2
- spectrum count [22]: 2

Substance: endogenous FAF1 (from UniProt Q9UNN5 1-650)
- sequence count (p97-Myc): 7
- sequence coverage (p97-Myc): 8.2%
- spectrum count (p97-Myc): 11

The remaining lines, values ahead:

- abundance factor (AF) (Cullin 1 (human) [1]): 8.4
- sequence count (Cullin 1 (human) [1]): 5
- spectrum count (Cullin 1 (human) [1]): 7
- abundance factor (AF) [2]: 8.9
- sequence count [2]: 5
- spectrum count [2]: 5
- abundance factor (AF) (Cullin 3 (human) [3]): 14.1
- sequence count (Cullin 3 (human) [3]): 12
- spectrum count (Cullin 3 (human) [3]): 12
- abundance factor (AF) (UBR2 (human) [4]): 1
- sequence count (UBR2 (human) [4]): 2
- spectrum count (UBR2 (human) [4]): 2
- abundance factor (AF) (Cullin 2 (human)): 7.2
- sequence count (Cullin 2 (human)): 6
- spectrum count (Cullin 2 (human)): 6
- abundance factor (AF) [5]: 3.4
- sequence count [5]: 2
- spectrum count [5]: 2
- abundance factor (AF) [6]: 11.7
- sequence count [6]: 8
- spectrum count [6]: 8
- abundance factor (AF) [7]: 10.2
- sequence count [7]: 47
- spectrum count [7]: 56
- abundance factor (AF) (gp78 (human) [8]): 8.6
- sequence count (gp78 (human) [8]): 4
- spectrum count (gp78 (human) [8]): 6
- abundance factor (AF) (SKP1 (human) [9]): 33.6
- sequence count (SKP1 (human) [9]): 4
- spectrum count (SKP1 (human) [9]): 6
- sequence count (VCIP135 (human)): 5
- sequence coverage (VCIP135 (human)): 5.9%
- spectrum count (VCIP135 (human)): 5
- sequence count (PLAP (human)): 2
- sequence coverage (PLAP (human)): 4.8%
- spectrum count (PLAP (human)): 2
- abundance factor (AF) (Cullin 1 (human) [10]): 9.1
- sequence count (Cullin 1 (human) [10]): 6
- spectrum count (Cullin 1 (human) [10]): 8
- abundance factor (AF) (Cullin 3 (human) [11]): 24.6
- abundance factor (AF) (UBR2 (human) [12]): 2
- sequence count (UBR2 (human) [12]): 4
- spectrum count (UBR2 (human) [12]): 4
- abundance factor (AF) [13]: 8.3
- sequence count [13]: 6
- spectrum count [13]: 6
- abundance factor (AF) [14]: 1.6
- sequence count [14]: 9
- spectrum count [14]: 9
- abundance factor (AF) (gp78 (human) [15]): 2.7
- sequence count (gp78 (human) [15]): 2
- spectrum count (gp78 (human) [15]): 2
- abundance factor (AF) (UBR1 (human)): 1
- sequence count (UBR1 (human)): 2
- spectrum count (UBR1 (human)): 2
- abundance factor (AF) (SKP1 (human) [16]): 10.7
- sequence count (SKP1 (human) [16]): 2
- spectrum count (SKP1 (human) [16]): 2
- abundance factor (AF) [17]: 2.6
- sequence count [17]: 2
- spectrum count [17]: 2
- abundance factor (AF) (Praja 2 (human)): 3.8
- sequence count (Praja 2 (human)): 3
- spectrum count (Praja 2 (human)): 3
Substance: Flag-FAF1 (from UniProt Q9UNN5 1-650)

- sequence count (VCIP135 (human)): 2
- sequence coverage (VCIP135 (human)): 2.5%
- spectrum count (VCIP135 (human)): 2
- sequence count (PLAP (human)): 3
- sequence coverage (PLAP (human)): 7.5%
- spectrum count (PLAP (human)): 3
Substance: Flag-UBXD1 (from UniProt Q9BZV1 1-441)

- sequence count (endogenous NPL4 (human)): 2
- sequence coverage (endogenous NPL4 (human)): 5.2%
- spectrum count (endogenous NPL4 (human)): 3
- sequence count (VCIP135 (human)): 20
- sequence coverage (VCIP135 (human)): 27.5%
- spectrum count (VCIP135 (human)): 25
- sequence count (PLAP (human)): 6
- sequence coverage (PLAP (human)): 11.6%
- spectrum count (PLAP (human)): 6
- sequence count (endogenous p97 (human)): 124
- sequence coverage (endogenous p97 (human)): 75.5%
- spectrum count (endogenous p97 (human)): 783
Substance: Flag-UBXD5

- sequence count (endogenous NPL4 (human)): 9
- sequence coverage (endogenous NPL4 (human)): 16.5%
- spectrum count (endogenous NPL4 (human)): 16
- sequence count (VCIP135 (human)): 2
- sequence coverage (VCIP135 (human)): 2.7%
- spectrum count (VCIP135 (human)): 2
- sequence count (endogenous UFD1 (human)): 4
- sequence coverage (endogenous UFD1 (human)): 19.2%
- spectrum count (endogenous UFD1 (human)): 5
Substance: Flag-UBXD6 (from UniProt O00124 1-270)
